Here are results for nine proteins from US20210238260.

The chains are these.
B1: FIXa Y155F/R318Y/R338E/T343R/R403E/E410N (protein)
chain 1: YNSGKLEEFVQGNLERECMEEKCSFEEAREVFENTERTTEFWKQYVDGDQCESNPCLNGGSCKDDINSYECWCPFGFEGKNCELDVTCNIKNGRCEQFCKNSADNKVVCSCTEGYRLAENQKSCEPAVPFPCGRVSVSQTSKLTR
chain 2: VVGGEDAKPGQFPWQVVLNGKVDAFCGGSIVNEKWIVTAAHCVETGVKITVVAGEHNIEETEHTEQKRNVIRIIPHHNYNAAINKYNHDIALLELDEPLVLNSYVTPICIADKEYTNIFLKFGSGYVSGWGRVFHKGYSALVLQYLRVPLVDRATCLESTKFRIYNNMFCAGFHEGGRDSCQGDSGGPHVTEVEGTSFLTGIISWGEECAMKGKYGIYTKVSEYVNWIKNKTKLT
B2: FIXa D104N/K106S/R318Y/R338E/T343R/R403E/E410N (protein)
chain 1: YNSGKLEEFVQGNLERECMEEKCSFEEAREVFENTERTTEFWKQYVDGDQCESNPCLNGGSCKDDINSYECWCPFGFEGKNCELDVTCNIKNGRCEQFCKNSANNSVVCSCTEGYRLAENQKSCEPAVPFPCGRVSVSQTSKLTR
chain 2: VVGGEDAKPGQFPWQVVLNGKVDAFCGGSIVNEKWIVTAAHCVETGVKITVVAGEHNIEETEHTEQKRNVIRIIPHHNYNAAINKYNHDIALLELDEPLVLNSYVTPICIADKEYTNIFLKFGSGYVSGWGRVFHKGYSALVLQYLRVPLVDRATCLESTKFRIYNNMFCAGFHEGGRDSCQGDSGGPHVTEVEGTSFLTGIISWGEECAMKGKYGIYTKVSEYVNWIKNKTKLT
B3: FIXa Y155F/K247N/N249S/R318Y/R403E/E410N (protein)
chain 1: YNSGKLEEFVQGNLERECMEEKCSFEEAREVFENTERTTEFWKQYVDGDQCESNPCLNGGSCKDDINSYECWCPFGFEGKNCELDVTCNIKNGRCEQFCKNSADNKVVCSCTEGYRLAENQKSCEPAVPFPCGRVSVSQTSKLTR
chain 2: VVGGEDAKPGQFPWQVVLNGKVDAFCGGSIVNEKWIVTAAHCVETGVKITVVAGEHNIEETEHTEQNRSVIRIIPHHNYNAAINKYNHDIALLELDEPLVLNSYVTPICIADKEYTNIFLKFGSGYVSGWGRVFHKGYSALVLQYLRVPLVDRATCLRSTKFTIYNNMFCAGFHEGGRDSCQGDSGGPHVTEVEGTSFLTGIISWGEECAMKGKYGIYTKVSEYVNWIKNKTKLT
B4: FIXa R318Y/R338E/T343R/N346Y/R403E/E410N (protein)
chain 1: YNSGKLEEFVQGNLERECMEEKCSFEEAREVFENTERTTEFWKQYVDGDQCESNPCLNGGSCKDDINSYECWCPFGFEGKNCELDVTCNIKNGRCEQFCKNSADNKVVCSCTEGYRLAENQKSCEPAVPFPCGRVSVSQTSKLTR
chain 2: VVGGEDAKPGQFPWQVVLNGKVDAFCGGSIVNEKWIVTAAHCVETGVKITVVAGEHNIEETEHTEQKRNVIRIIPHHNYNAAINKYNHDIALLELDEPLVLNSYVTPICIADKEYTNIFLKFGSGYVSGWGRVFHKGYSALVLQYLRVPLVDRATCLESTKFRIYYNMFCAGFHEGGRDSCQGDSGGPHVTEVEGTSFLTGIISWGEECAMKGKYGIYTKVSEYVNWIKNKTKLT
B5: FIXa K247N/N249S/R318Y/R338E/R403E (protein)
chain 1: YNSGKLEEFVQGNLERECMEEKCSFEEAREVFENTERTTEFWKQYVDGDQCESNPCLNGGSCKDDINSYECWCPFGFEGKNCELDVTCNIKNGRCEQFCKNSADNKVVCSCTEGYRLAENQKSCEPAVPFPCGRVSVSQTSKLTR
chain 2: VVGGEDAKPGQFPWQVVLNGKVDAFCGGSIVNEKWIVTAAHCVETGVKITVVAGEHNIEETEHTEQNRSVIRIIPHHNYNAAINKYNHDIALLELDEPLVLNSYVTPICIADKEYTNIFLKFGSGYVSGWGRVFHKGYSALVLQYLRVPLVDRATCLESTKFTIYNNMFCAGFHEGGRDSCQGDSGGPHVTEVEGTSFLTGIISWGEECAMKGKYGIYTKVSEYVNWIKEKTKLT
B6: FIXa R318Y/R338E/Y345A/R403E/E410N (protein)
chain 1: YNSGKLEEFVQGNLERECMEEKCSFEEAREVFENTERTTEFWKQYVDGDQCESNPCLNGGSCKDDINSYECWCPFGFEGKNCELDVTCNIKNGRCEQFCKNSADNKVVCSCTEGYRLAENQKSCEPAVPFPCGRVSVSQTSKLTR
chain 2: VVGGEDAKPGQFPWQVVLNGKVDAFCGGSIVNEKWIVTAAHCVETGVKITVVAGEHNIEETEHTEQKRNVIRIIPHHNYNAAINKYNHDIALLELDEPLVLNSYVTPICIADKEYTNIFLKFGSGYVSGWGRVFHKGYSALVLQYLRVPLVDRATCLESTKFTIANNMFCAGFHEGGRDSCQGDSGGPHVTEVEGTSFLTGIISWGEECAMKGKYGIYTKVSEYVNWIKNKTKLT
B7: FIXa R318Y/R338E/N346Y/R403E/E410N (protein)
chain 1: YNSGKLEEFVQGNLERECMEEKCSFEEAREVFENTERTTEFWKQYVDGDQCESNPCLNGGSCKDDINSYECWCPFGFEGKNCELDVTCNIKNGRCEQFCKNSADNKVVCSCTEGYRLAENQKSCEPAVPFPCGRVSVSQTSKLTR
chain 2: VVGGEDAKPGQFPWQVVLNGKVDAFCGGSIVNEKWIVTAAHCVETGVKITVVAGEHNIEETEHTEQKRNVIRIIPHHNYNAAINKYNHDIALLELDEPLVLNSYVTPICIADKEYTNIFLKFGSGYVSGWGRVFHKGYSALVLQYLRVPLVDRATCLESTKFTIYYNMFCAGFHEGGRDSCQGDSGGPHVTEVEGTSFLTGIISWGEECAMKGKYGIYTKVSEYVNWIKNKTKLT
B8: FIXa R318Y/R338E/T343R/N346D/R403E/E410N (protein)
chain 1: YNSGKLEEFVQGNLERECMEEKCSFEEAREVFENTERTTEFWKQYVDGDQCESNPCLNGGSCKDDINSYECWCPFGFEGKNCELDVTCNIKNGRCEQFCKNSADNKVVCSCTEGYRLAENQKSCEPAVPFPCGRVSVSQTSKLTR
chain 2: VVGGEDAKPGQFPWQVVLNGKVDAFCGGSIVNEKWIVTAAHCVETGVKITVVAGEHNIEETEHTEQKRNVIRIIPHHNYNAAINKYNHDIALLELDEPLVLNSYVTPICIADKEYTNIFLKFGSGYVSGWGRVFHKGYSALVLQYLRVPLVDRATCLESTKFRIYDNMFCAGFHEGGRDSCQGDSGGPHVTEVEGTSFLTGIISWGEECAMKGKYGIYTKVSEYVNWIKNKTKLT
B9: FIXa Y155F/K247N/N249S/R318Y/R338E/R403E (protein)
chain 1: YNSGKLEEFVQGNLERECMEEKCSFEEAREVFENTERTTEFWKQYVDGDQCESNPCLNGGSCKDDINSYECWCPFGFEGKNCELDVTCNIKNGRCEQFCKNSADNKVVCSCTEGYRLAENQKSCEPAVPFPCGRVSVSQTSKLTR
chain 2: VVGGEDAKPGQFPWQVVLNGKVDAFCGGSIVNEKWIVTAAHCVETGVKITVVAGEHNIEETEHTEQNRSVIRIIPHHNYNAAINKYNHDIALLELDEPLVLNSYVTPICIADKEYTNIFLKFGSGYVSGWGRVFHKGYSALVLQYLRVPLVDRATCLESTKFTIYNNMFCAGFHEGGRDSCQGDSGGPHVTEVEGTSFLTGIISWGEECAMKGKYGIYTKVSEYVNWIKEKTKLT

Usually kcat/KM stands for the turnover number divided by the Michaelis constant.

Sequence of Factor X, P00742 (P00742 whole entry, looked up): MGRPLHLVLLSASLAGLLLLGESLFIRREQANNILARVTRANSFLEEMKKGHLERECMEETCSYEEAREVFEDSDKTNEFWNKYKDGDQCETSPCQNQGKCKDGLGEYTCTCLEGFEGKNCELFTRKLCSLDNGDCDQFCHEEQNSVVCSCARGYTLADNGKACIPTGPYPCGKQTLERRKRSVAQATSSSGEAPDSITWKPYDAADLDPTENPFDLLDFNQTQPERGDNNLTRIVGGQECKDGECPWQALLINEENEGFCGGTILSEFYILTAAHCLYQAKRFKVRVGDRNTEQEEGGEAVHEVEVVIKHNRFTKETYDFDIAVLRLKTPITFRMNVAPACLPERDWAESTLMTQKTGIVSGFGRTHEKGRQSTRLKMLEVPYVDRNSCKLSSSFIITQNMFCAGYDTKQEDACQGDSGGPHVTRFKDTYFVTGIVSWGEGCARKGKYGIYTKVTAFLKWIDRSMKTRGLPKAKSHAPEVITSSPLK

This series has as its target Factor X, P00742.
Consider B1, for which the “% of WT kcat/KM” value turned out to be 640%; the KM (FX activation by FIXa in Xase complex with FVIIIa, PC/PS vesicles, Ca2+) came to 27.2 nM; the kcat/KM worked out at 3e+08 M⁻¹ s⁻¹.
Consider B2, for which the “% of WT kcat/KM” value is reported as 487%; the KM (FX activation by FIXa in Xase complex with FVIIIa, PC/PS vesicles, Ca2+) is 26.6 nM; the kcat/KM is 2.2e+08 M⁻¹ s⁻¹.
On to B3, for which the KM (FX activation by FIXa in Xase complex with FVIIIa, PC/PS vesicles, Ca2+) stood at 125 nM.
Consider B4, for which the “% of WT kcat/KM” value is recorded as 663%; the KM (FX activation by FIXa in Xase complex with FVIIIa, PC/PS vesicles, Ca2+) is 15.8 nM; the kcat/KM was determined as 3.1e+08 M⁻¹ s⁻¹.
As to B5, the KM (FX activation by FIXa in Xase complex with FVIIIa, PC/PS vesicles, Ca2+) was found to be 53.6 nM.
Regarding B6, the “% of WT kcat/KM” value stood at 180%; the KM (FX activation by FIXa in Xase complex with FVIIIa, PC/PS vesicles, Ca2+) turned out to be 18.8 nM; the kcat/KM was determined as 8.3e+07 M⁻¹ s⁻¹.
Turning to B7, the “% of WT kcat/KM” value is 270%; the KM (FX activation by FIXa in Xase complex with FVIIIa, PC/PS vesicles, Ca2+) is 28.1 nM; the kcat/KM amounted to 1.2e+08 M⁻¹ s⁻¹.
In the case of B8, the “% of WT kcat/KM” value is recorded as 177%; the KM (FX activation by FIXa in Xase complex with FVIIIa, PC/PS vesicles, Ca2+) worked out at 67 nM; the kcat/KM is 8.2e+07 M⁻¹ s⁻¹.
Take B9: the KM (FX activation by FIXa in Xase complex with FVIIIa, PC/PS vesicles, Ca2+) came out at 67.3 nM.
